Measurements: US20230242640A1 (published 2023)
Where a chain is given by its changes, count along the chain named.

T1: recombinant hSIRPg-His (Sino Biologicals reference 11828-H08H) (human, UniProt Q9P1W8 29-360)
T1 chain: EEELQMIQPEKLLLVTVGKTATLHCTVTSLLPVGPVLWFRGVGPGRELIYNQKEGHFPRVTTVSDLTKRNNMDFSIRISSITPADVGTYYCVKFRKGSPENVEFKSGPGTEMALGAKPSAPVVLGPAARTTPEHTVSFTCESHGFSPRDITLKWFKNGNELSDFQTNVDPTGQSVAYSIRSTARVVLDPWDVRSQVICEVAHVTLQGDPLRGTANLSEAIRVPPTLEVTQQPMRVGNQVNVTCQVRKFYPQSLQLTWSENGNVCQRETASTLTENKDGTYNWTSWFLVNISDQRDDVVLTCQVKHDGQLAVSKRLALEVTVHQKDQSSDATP

T2: peptide human SIRPgamma VKFRKGSPENVEFKSGPGTEMALGAKPSA-6His
T2 peptide: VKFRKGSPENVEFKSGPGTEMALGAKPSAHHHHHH

B1: anti-SIRPg antibody A5 (antibody, V domains shown)
VH: EVQLVESGGGVVRPGGSLRLSCAASGFTFDDYGMSWVRQAPGKGLEWVSGINWNGGSTGYADSVKGRFTISRDNAKNSLYLQMNSLRAEDTAVYYCARQMVKLWGQGTLVTVSR
VL: SSELTQDPAVSVALGQTVRITCQGDSLRSYYASWYQQKPGQAPVLVIYGKNNRPSGIPDRFSGSSSGNTASLTITGAQAEDEADYYCNSRDSSGNHVVFGGGTKLTVLR
B2: anti-SIRPg antibody A8 (antibody, V domains shown)
VH: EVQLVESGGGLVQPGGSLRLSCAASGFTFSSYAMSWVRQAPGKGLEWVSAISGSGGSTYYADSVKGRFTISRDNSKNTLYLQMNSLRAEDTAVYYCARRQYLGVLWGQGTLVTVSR
VL: B1 VL
B3: anti-SIRPg antibody A1 (antibody, V domains shown)
VH: B1 VH with Q99W, M100I, V101A, L103V
VL: B1 VL

Biological target: T1, recombinant hSIRPg-His (Sino …)
Experiment: competition ELISA with CD47-Fc

Row | IC50 [mg/L] | Binder
1 | 0.045 | B1
2 | 0.31 | B2
3 | 0.19 | B3

Biological target: T2, peptide human SIRPgamma …
Experiment: ELISA

Row | EC50 [mg/L] | Binder
4 | 0.069 | B1
5 | 0.0258 | B2
6 | 0.0505 | B3
